From patent US20180305460A1 (Teva, published 2018)
Values belong to the binder of their own block, whether it stands above or below them.

Columns and labels:
[1] = target: Human CD38 (soluble analyte in the SPR assay) (human, UniProt P28907 43-300); experiment: SPR (Biacore), antibody captured on Protein A from supernatant, CD38 injected; weakest KD among the separate SPR experiments
[2] = target: T1, interferon-alpha/β receptor (IFNAR) (human, UniProt P17181); experiment: cell-based or functional assay
T1 sequence (receptor (subunits not named in the filing), looked up): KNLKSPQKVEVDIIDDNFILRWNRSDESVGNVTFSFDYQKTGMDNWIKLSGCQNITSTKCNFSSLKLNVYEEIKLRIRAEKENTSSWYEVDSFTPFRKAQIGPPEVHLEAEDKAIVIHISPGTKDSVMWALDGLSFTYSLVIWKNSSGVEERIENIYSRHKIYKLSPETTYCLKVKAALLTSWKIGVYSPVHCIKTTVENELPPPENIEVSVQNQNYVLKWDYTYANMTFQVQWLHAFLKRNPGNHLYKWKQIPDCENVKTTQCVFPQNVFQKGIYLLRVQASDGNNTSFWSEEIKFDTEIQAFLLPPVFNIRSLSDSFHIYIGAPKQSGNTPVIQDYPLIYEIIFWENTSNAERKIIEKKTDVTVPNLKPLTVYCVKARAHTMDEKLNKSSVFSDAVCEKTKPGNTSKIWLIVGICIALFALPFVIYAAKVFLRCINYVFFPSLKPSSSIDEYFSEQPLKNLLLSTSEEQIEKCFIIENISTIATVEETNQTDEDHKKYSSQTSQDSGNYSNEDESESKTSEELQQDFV

[3] = target: Human CD38 on CD38-positive myeloma cell lines ARP-1 and H929 (human, UniProt P28907 43-300); experiment: flow cytometry on ARP-1 cells, purified protein
Human CD38 [4] = target: T2, Human CD38 (human, UniProt P28907 43-300); experiment: SPR (Biacore), the experiment for all other antibodies of Table 7
Human CD38 [5] = target: T2, Human CD38; experiment: SPR (Biacore), the separate experiment in which X02.107 was evaluated
[6] = target: T3, Human CD38 on CD38-positive myeloma cells (ARP-1, H929) (human, UniProt P28907 43-300); experiment: flow cytometry, ARP-1 cells (CD38-positive)
T3 construct: Endogenous CD38 on the human myeloma cell lines ARP-1 and H929, used in flow cytometry; also called NCI-H929

Human CD38 [7] = target: T2, Human CD38; experiment: SPR (Biacore), antibody from supernatant captured on Protein A, human CD38 injected, 1:1 fit
Human CD38 [8] = target: T2, Human CD38; experiment: SPR (Biacore), antibody from supernatant captured on Protein A, human CD38 injected, 1:1 fit; separate experiment in which X02.1 gave 2.7 × 10^-8

Kd [1]: 0.378 to 27 nM
B1: X02.1 (antibody, human IgG4 S228P, lambda)
heavy: not shown
light: QAVLTQPASLSASPGESARLTCTLPSDINVRYYNIYWYQQKPGSPPRYLLYYYSDSHKGQGSGVPSRFSGSKDVSTNSGILLISGLQSEDEADYYCMTWSSNGSGVFGGGTQLTVLGQPKAAPSVTLFPPSSEELQANKATLVCLISDFYPGAVTVAWKADSSPVKAGVETTTPSKQSNNKYAASSYLSLTPEQWKSHRSYSCQVTHEGSTVEKTVAPTECS
notes: also called parental antibody X02.1; unfused form of A02.1 (X355/02)

EC50; HEK-Blue IFN-alpha/β SEAP reporter (A630) on CD38-negative cells, the unit comes from the x axis 'IFN pM' [2]: 667 pM
B2: A02.6 (wt. IFN) (antibody)
chain 1: QLQLQESGPGLVKPSETLSLTCTVSGGSISSSSYYWSWIRQHPGKGLEWIGYIYYSGSTNYNPSLKSRVTISVDTSKNQFSLKLSSVTAADTAVYYCARVGGAGGWPMDVWGQGTTVTVSS
chain 2: QAVLTQPASLSASPGESARLTCTLPSDINVRYYNIYWYQQKPGSPPRYLLYYYSDSHKGQGSGVPSRFSGSKDVSTNSGILLISGLQSEDIATYYCMTWSSNGSGVFGGGTQLTVLG

EC50 [3]: 1.45 µg/mL
B3: A02.1 (antibody)
heavy: QLQLQESGPGLVKPSETLSLTCTVSGGSISSSSYYWSWIRQHPGKGLEWIGYIYYSGSTNYNPSLKSRVTISVDTLKNQISLRLTSVTAADTAVYYCARVGGAGGWPMDVWGQGTTVTVSS
light: QAVLTQPASLSASPGESARLTCTLPSDINVRYYNIYWYQQKPGSPPRYLLYYYSDSHKGQGSGVPSRFSGSKDVSTNSGILLISGLQSEDEADYYCMTWSSNGSGVFGGGTQLTVLGQPKAAPSVTLFPPSSEELQANKATLVCLISDFYPGAVTVAWKADSSPVKAGVETTTPSKQSNNKYAASSYLSLTPEQWKSHRSYSCQVTHEGSTVEKTVAPTECS
notes: Anti-CD38 IgG4 fused to attenuated IFN-alpha2b A145D at the heavy chain C-terminus; also called X355/02-HC-L0-IFN-alpha (A145D) IgG4

Kd (Human CD38 [4]): 0.378 nM | Kd (Human CD38 [5]): 27 nM
B4: X02.1 (antibody, human IgG4 S228P)
heavy: not shown
VL: QAVLTQPASLSASPGESARLTCTLPSDINVRYYNIYWYQQKPGSPPRYLLYYYSDSHKGQGSGVPSRFSGSKDVSTNSGILLISGLQSEDEADYYCMTWSSNGSGVFGGGTQLTVLG
notes: Human IgG4 S228P, not fused to IFN; also called parental antibody X02.1

EC50 [6]: 16.8 µg/mL | Kd (Human CD38 [7]): 0.0368 nM
B5: X02.69 (antibody, human IgG4 S228P)
heavy: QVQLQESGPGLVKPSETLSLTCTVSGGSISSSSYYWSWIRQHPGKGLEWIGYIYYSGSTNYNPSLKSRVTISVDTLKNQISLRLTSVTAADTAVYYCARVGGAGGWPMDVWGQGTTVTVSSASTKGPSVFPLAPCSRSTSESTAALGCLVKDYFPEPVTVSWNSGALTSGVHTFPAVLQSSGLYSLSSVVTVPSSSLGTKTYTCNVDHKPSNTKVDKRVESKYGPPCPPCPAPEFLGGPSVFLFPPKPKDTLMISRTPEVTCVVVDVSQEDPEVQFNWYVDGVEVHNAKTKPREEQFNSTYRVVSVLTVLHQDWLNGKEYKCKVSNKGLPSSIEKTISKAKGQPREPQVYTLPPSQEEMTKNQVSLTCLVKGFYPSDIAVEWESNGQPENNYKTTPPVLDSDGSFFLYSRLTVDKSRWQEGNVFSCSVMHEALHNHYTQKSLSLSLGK
VL: QAVLTQPASLSASPGESARLTCTLPSDINVRYYNIYWYQQKPGSPPRYLLYYYSDSHKGQGSGVPSRFSGSKDVSTNSGILLISGLQSEDEADYYCMTWSSNGSGVFGGGTQLTVLG
notes: IgG4 S228P; VH Q2V relative to X02.1

Kd (Human CD38 [8]): 24.7 nM
B6: X02.107 (antibody)
heavy: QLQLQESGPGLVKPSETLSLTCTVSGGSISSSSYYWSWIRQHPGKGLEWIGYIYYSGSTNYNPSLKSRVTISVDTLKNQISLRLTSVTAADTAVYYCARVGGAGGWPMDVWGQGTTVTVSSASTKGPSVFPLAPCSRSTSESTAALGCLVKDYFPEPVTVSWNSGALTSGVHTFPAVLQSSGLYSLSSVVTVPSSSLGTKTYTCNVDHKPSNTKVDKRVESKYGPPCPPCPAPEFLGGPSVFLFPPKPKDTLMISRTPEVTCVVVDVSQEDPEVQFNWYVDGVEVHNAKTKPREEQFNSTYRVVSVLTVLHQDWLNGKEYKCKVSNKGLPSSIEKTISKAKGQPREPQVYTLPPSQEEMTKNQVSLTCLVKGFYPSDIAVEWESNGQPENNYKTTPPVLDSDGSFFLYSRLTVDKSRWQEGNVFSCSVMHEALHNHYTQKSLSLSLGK
VL: QAVLTQPASLSASPGESARLTCTLPSDINVRYYNIYWYQQKPGSPPRYLLYYYSDSHKGQGSGVPSRFSGSKDVSTNSGILLISGLQSEDIATYYCMTWSSNGSGVFGGGTQLTVLG
notes: IgG4 S228P with the X02.1 VH; VL E83I, D85T relative to A02.1
